The text below walks through data of patent US20020045158, “Cells for drug discovery” (published 2002).

As a reminder, the Kd is the equilibrium constant for the complex coming apart.

One data set has as its system Zif268. The data set can be described thus: EMSA. Conditions: target sequence not given; literature 2-30 nM; cited from earlier work. (A gel shift assay detects complexes by their altered migration in electrophoresis.)
Data set [1] concerns SP-1 zinc finger domain (Homo sapiens). Nature of the data set: EMSA. As to conditions: target sequence not given.
Another data set addresses T1, VEGF3a/1 six-finger ZFP (artificial (human SP-1 backbone)).
T1 chain: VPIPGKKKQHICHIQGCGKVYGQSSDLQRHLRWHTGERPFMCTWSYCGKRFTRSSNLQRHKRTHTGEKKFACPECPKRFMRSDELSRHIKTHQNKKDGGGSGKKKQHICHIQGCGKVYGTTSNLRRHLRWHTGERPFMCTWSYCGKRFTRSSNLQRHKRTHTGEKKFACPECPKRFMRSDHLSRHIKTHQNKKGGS
The data set can be described thus: competition; half-life of complex relative to VEGF1, EMSA competition at 37 C. As to conditions: tags: MBP N-terminal fusion; label: 5' 32P. The procedure: For the EMSA studies, 20 μl binding reactions contained 10 fmole (0.5 nM) 5′ ³²P-labeled double-stranded target DNA, 35 mM Tris HCl (pH 7.8), 100 mM KCl, 1 mM MgCl₂, 5 mM dithiothreitol, 10% glycerol, 20 μg/ml poly dI-dC, 200 μg/ml bovine serum albumin, and 25 μM ZnCl₂. Protein was added as one fifth volume from a 3-fold dilution series. Binding was allowed to proceed for 60 min at either room temperature or 37° C. Polyacrylamide gel electrophoresis was carried out at room temperature or 37° C. using precast 10% or 10-20% Tris-HCl gels (BioRad) and standard Tris-Glycine running buffer. The room temperature assays yielded an apparent Kd for this VEGF3a/1 protein of approximately 1.5 nM. Thus, the 18-bp binding ZFP bound with high affinity to its target site. […] When binding and electrophoresis were performed at 37° C., the apparent Kd of VEGF3a/1 was approximately 9 nM when tested against the 18-bp target, compared to a Kd of 40 nM for VEGF1 tested against its target.
The apparent Kd is a useful measure of the affinity of a protein for its DNA target. However, for a DNA binding site either in vitro or in vivo, its occupancy is determined to a large extent by the off-rate of the DNA-binding protein. This parameter can be measured by competition experiments. The conditions for EMSA were as described above; binding and electrophoresis were performed at 37° C. […]

For a further data set, the target named is T2, ZFP3A-VP16 / KRAB-ZFP3A (artificial, UniProt P08047).
T2 chain: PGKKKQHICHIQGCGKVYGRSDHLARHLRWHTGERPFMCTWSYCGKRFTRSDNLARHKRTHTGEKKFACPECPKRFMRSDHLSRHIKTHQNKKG
The data set can be described thus: cell_activity; VP16 fusion on cotransfected reporter; KRAB fusion lowered hKCa4 conductance to 1.0 nS vs 10.0 for empty vector. As to conditions: tags: VP16 or KRAB fusion.

For Zif268 target site, the Kd in the data set with Zif268 was 60 nM.
Molecule SP-1 target site yielded a Kd in data set [1] of 65 nM.

B1: VEGF 18-bp target JVF9/JVF10 (dsDNA)
DNA 1: AGCGAGCGGGGAGGATCGCGGAGGCTTGGGGCAGCCGGGTAG
DNA 2: CGCTCTACCCGGCTGCCCCAAGCCTCCGCGATCCTCCCCGCT
For B1, in the data set with VEGF3a/1 six-finger ZFP, the binding signal is greater than 10 fold.

B2: hKCa4 target site (dsDNA)
DNA 1: GGGGAGGGC
DNA 2: GCCCTCCCC
With B2, the activity with ZFP3A-VP16 / KRAB-ZFP3A was greater than 5 fold activation.
